Source: IntAct's records for PubMed 23825108

Target: mmac_human MMACHC (UniProt Q9Y4U1)
Sequence (Q9Y4U1 whole entry): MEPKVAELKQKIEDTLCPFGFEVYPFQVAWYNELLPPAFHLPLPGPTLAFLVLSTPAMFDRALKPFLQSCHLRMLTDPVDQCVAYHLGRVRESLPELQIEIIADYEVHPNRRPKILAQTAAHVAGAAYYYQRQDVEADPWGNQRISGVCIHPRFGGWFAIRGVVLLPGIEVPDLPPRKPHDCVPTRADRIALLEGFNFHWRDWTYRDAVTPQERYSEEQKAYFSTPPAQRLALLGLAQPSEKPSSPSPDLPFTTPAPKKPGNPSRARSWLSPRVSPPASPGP

Sequence of Methionine synthase (Homo sapiens), Q99707 P1173L (Q99707 whole entry P1173L): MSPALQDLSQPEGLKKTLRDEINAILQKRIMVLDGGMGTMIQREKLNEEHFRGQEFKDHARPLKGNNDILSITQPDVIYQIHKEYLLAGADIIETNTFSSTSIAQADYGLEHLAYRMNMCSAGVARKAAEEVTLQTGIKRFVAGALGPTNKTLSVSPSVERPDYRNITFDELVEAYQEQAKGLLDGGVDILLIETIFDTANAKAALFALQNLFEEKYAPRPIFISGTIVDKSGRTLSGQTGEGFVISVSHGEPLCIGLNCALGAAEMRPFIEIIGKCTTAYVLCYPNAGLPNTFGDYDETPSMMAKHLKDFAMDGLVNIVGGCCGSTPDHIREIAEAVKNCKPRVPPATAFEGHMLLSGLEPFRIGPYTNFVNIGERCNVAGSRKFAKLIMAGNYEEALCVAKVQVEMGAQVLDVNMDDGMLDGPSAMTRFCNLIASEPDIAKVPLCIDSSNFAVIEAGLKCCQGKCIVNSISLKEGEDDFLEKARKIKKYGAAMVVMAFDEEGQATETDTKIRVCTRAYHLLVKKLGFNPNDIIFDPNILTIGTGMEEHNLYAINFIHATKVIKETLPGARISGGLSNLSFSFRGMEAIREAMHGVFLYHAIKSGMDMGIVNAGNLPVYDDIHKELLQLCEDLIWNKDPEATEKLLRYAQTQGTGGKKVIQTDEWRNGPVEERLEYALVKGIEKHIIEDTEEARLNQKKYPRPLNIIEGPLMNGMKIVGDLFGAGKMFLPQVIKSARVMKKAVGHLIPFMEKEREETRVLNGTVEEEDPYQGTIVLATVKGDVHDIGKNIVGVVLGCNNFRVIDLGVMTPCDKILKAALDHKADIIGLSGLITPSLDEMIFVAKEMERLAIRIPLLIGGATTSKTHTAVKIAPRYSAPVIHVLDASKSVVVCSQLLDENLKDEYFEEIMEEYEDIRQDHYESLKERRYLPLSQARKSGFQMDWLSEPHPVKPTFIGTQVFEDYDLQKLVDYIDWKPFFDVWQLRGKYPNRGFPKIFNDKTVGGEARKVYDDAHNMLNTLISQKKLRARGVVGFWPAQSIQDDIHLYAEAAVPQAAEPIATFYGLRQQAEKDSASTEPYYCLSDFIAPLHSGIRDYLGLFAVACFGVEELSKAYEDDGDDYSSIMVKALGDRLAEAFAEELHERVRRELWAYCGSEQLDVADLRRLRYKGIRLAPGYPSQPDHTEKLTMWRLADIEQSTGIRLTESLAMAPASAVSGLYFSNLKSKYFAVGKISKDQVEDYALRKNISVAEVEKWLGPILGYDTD

## Methionine synthase (Homo sapiens), Q99707 P1173L
  effect of a mutation on the interaction: increasing interaction strength
